B1: SEQ ID NO:19 (ssRNA)
RNA: GGGUACGAGUCUGGACUUGCAACAAGGUGCUCCACCUACCUAGUGGAACUUGCUGAUGAGGCUCACAACAGGC
modifications: 2'-F at all pyrimidines
B2: SEQ ID NO:23 (ssRNA)
RNA: GGGUACGAGUCUGGACUUGCAACCUAAUGCGGUGCUCCUCUGGAACCAUUAGCUGUUGCAAAUGAGGCUCACAACAGGC
modifications: 2'-F at all pyrimidines
B3: SEQ ID NO:22 (ssRNA)
RNA: GGGUACGAGUCUGGACUUGCAAUACGAGGUGCUCCAAGGAAUCGCCCUGGAACUCGACGACGUGAGGCUCACAACAGGC
modifications: 2'-F at all pyrimidines
B4: SEQ ID NO:20 (ssRNA)
RNA: GGGUACGAGUCUGGACUUGCAAGGUGCUCCGUUAGCAUUGCGGAACUUGCAAUAUAUCCUAUUGAGGCUCACAACAGGC
modifications: 2'-F at all pyrimidines
B5: SEQ ID NO:21 (ssRNA)
RNA: GGGUACGAGUCUGGACUUGCAACGGAUACAGGUGCUCCGAUCUUCGGAACUGGCGUUGGCGGUGAGGCUCACAACAGGC
modifications: 2'-F at all pyrimidines
B6: SEQ ID NO:15-3 (30F-3) (mixed)
RNA: GGAGGUGCUCCGCGAGCCACGCGGAACUCC
modifications: deoxy G1 G2 C11 C13 A15-A19 C20 C22 C29 C30; 2'-F U6 C8 U9 C10 C27 U28; rest 2'-OH
B7: SEQ ID NO:15-4 (30F-4) (mixed)
RNA: GGAGGUGCUCCGCGGAAACGCGGAACUCC
modifications: deoxy G1 G2 C13 G15 A16 A17 A18 C19 C21 C28 C29; 2'-F U6 C8 U9 C10 C11 C26 U27; rest 2'-OH
B8: SEQ ID NO:17-2 (23F2) (mixed)
RNA: GGAGGUGCUCCGAAAGGAACUCCAAAAAAAAAAAAAAAA
modifications: deoxy G1 G2 G12-A15 C22 C23 and A16 tail; 2'-F U6 C8 U9 C10 C11 C20 U21; rest 2'-OH
B9: SEQ ID NO:17-5 (23F11) (mixed)
RNA: GGAGGUGCUCCGAAAGGAACUCCAAAAAAAAAAAAAAAA
modifications: deoxy G1 G2 G12-G17 C22 C23 and A16 tail; 2'-F U6 C8 U9 C10 C11 C20 U21; rest 2'-OH
B10: SEQ ID NO:17-8 (23F25) (mixed)
RNA: GGAGGUGCUCCGAAAGGAACUCCAAAAAAAAAAAAAAAA
modifications: 2'-OMe G1 G2 G12-A15 C22 C23; 2'-F U6 C8 U9 C10 C11 C20 U21; deoxy A16 tail; rest 2'-OH
B11: SEQ ID NO:17-6 (23F12) (mixed)
RNA: GGAGGUGCUCCGAAAGGAACUCCAAAAAAAAAAAAAAAA
modifications: deoxy G1 G2 G7 G12-A15 C22 C23 and A16 tail; 2'-F U6 C8 U9 C10 C11 C20 U21; rest 2'-OH
B12: SEQ ID NO:17-4 (23F10) (mixed)
RNA: GGAGGUGCUCCGAAAGGAACUCCAAAAAAAAAAAAAAAA
modifications: deoxy G1 G2 C11 G12-A15 C22 C23 and A16 tail; 2'-F U6 C8 U9 C10 C20 U21; rest 2'-OH
B13: SEQ ID NO:11 (ssRNA)
RNA: GGACGAGUUACAGGUGCUCCAUCAACAAAAUGUUACAUGGAACUGUAACGGCCG
modifications: 2'-F at all pyrimidines
B14: SEQ ID NO:10 (ssRNA)
RNA: GGAAUGGACGAGUUACAGGUGCUCCAUCAACAAAAUGUUACAUGGAACUGUAACGGCCGACAU
modifications: 2'-F at all pyrimidines
B15: SEQ ID NO:8 (ssRNA)
RNA: GGGACACAAUGGACGAAAGGUGCUCCAACUAAAUUUGGAACUUUCCACCCAUAAUAACGGCCGACAUGAGAG
modifications: 2'-F at all pyrimidines
B16: SEQ ID NO:4 (ssRNA)
RNA: GGGACACAAUGGACGGCCAACGUUAACUGGAACUGUAAAUCAGGUGCUCGAGAUAACGGCCGACAUGAGAG
modifications: 2'-F at all pyrimidines
B17: SEQ ID NO:6 (ssRNA)
RNA: GGGACACAAUGGACGGCUGGUAAGGUGCUCGGAAUGGAACUCGUCAUUCGGAACUUAACGGCCGACAUGAGAG
modifications: 2'-F at all pyrimidines
B18: SEQ ID NO:7 (ssRNA)
RNA: GGGACACAAUGGACGGGUGUUACAGGUGCUUGAUAAAGGUAGAAAAUCAAACUGUAACGGCCGACAUGAGAG
modifications: 2'-F at all pyrimidines
B19: SEQ ID NO:3 (ssRNA)
RNA: GGGACACAAUGGACGGCGUAAAAUGGAACCUGGGUUAGAAUAUCGGGGGUGCUCCGUAACGGCCGACAUGAGAG
modifications: 2'-F at all pyrimidines
B20: SEQ ID NO:2 (ssRNA)
RNA: GGGACACAAUGGACGUCAAAGAAGAGGUGCUCUGCGAGCCACGCGGAACUCUAUAACGGCCGACAUGAGAG
modifications: 2'-F at all pyrimidines
B21: SEQ ID NO:5 (ssRNA)
RNA: GGGACACAAUGGACGACUACAAGGUGCUCCUUGAAAUGUUAAAUGAGGAACUUGUAACGGCCGACAUGAGAG
modifications: 2'-F at all pyrimidines
B22: SEQ ID NO:9 (ssRNA)
RNA: GGGCCACAGCGAGGUGCUCCACCAUUCACGUGGAACUCGUGGGCAGCCCGUCCCCGCGUGUGGUCGG
modifications: 2'-F at all pyrimidines

Each binder was assayed against T1, IgG1 (human, UniProt P01857-1 P01857-1:1-330) (assay: SPR). Details: tags: Calbiochem; chain copies: 2.
T1 sequence (P01857 other isoform, or with tags, fused parts or gaps): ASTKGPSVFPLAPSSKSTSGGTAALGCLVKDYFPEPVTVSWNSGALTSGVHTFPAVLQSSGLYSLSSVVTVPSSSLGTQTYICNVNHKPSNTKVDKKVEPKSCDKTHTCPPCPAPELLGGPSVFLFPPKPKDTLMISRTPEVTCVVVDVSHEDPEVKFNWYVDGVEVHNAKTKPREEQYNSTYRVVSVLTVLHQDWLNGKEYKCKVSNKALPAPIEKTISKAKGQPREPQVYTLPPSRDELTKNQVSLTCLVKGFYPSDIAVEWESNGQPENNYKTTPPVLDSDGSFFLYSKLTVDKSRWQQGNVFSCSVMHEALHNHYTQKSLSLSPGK
B1: binds.
GGAGGUGUUCCGAAAGGAACUCC (ssRNA, 2'-F at all pyrimidines [2'-F pyrimidines at 6,8,9,10,11,20,21,22,23]) [SEQ ID NO:17 C8U]: no binding.
B2: binds.

Same assay, conditions: tags: Calbiochem; chain copies: 2; GGUGCU bulge
B3: binds.
B4: binds.
B5: binds.

Same assay, conditions: tags: Calbiochem; chain copies: 2; label: 3' A16 tail for immobilisation
GGAGGUGCUCGAAAGAACUCC (ssRNA, 2'-F at all pyrimidines) [SEQ ID NO:18]: binds.
GGACAGGUGCUCCAUCAACAAAAUGUUACAUGGAACUGUCC (ssRNA, 2'-F at all pyrimidines) [SEQ ID NO:12]: binds.
GGACAGGUGCUCUGCGAGCCACGCGGAACUGUCC (ssRNA, 2'-F at all pyrimidines) [SEQ ID NO:13]: binds.

Each binder was assayed against T1, IgG1 (assay: SPR; parent SEQ 15 ++++). Details: tags: Calbiochem; chain copies: 2.
B6: binds.
B7: binds.

What follows are binders tested against T1, IgG1 (assay: SPR; parent SEQ 17 ++). Details: tags: Calbiochem; chain copies: 2.
Description: (§1) Used for the measurements was BIAcore 2000 manufactured by BIAcore. Used as the sensor chip was the SA chip having streptavidin immobilized thereon. Bound thereto was about 1000 RU of 16-residue Poly dT having biotin bound to the 5′ end thereof. The RNA for use as the ligand had 16-residue Poly A added to the 3′ end thereof, and immobilized to the SA chip via a bond between dT and A. The amount immobilized was adjusted to about 1000 RU by injecting 60 μL at a concentration of 0.01 μg/μL. 70 μL of IgG-Fc for analyte (manufactured by Athens Research & Technology), adjusted to 0.6 μM, was injected. The running buffer used had the same components as those of the solution A used in SELEX.
The RNAs were prepared by chemical synthesis (manufactured by Gene Design). Their binding affinities were measured by a surface plasmon resonance method as in Example 1. Used as the IgG was human IgG1 (manufactured by Calbiochem).
GGAGGUGCUCCGAAAGGAACUCCAAAAAAAAAAAAAAAA (mixed, as 17-8 with 2'-OMe C11) [SEQ ID NO:17-13 (23F43)]: binds.
GGAGGUGCUCCGAAAGGAACUCCAAAAAAAAAAAAAAAA (mixed, as 17-8 with 2'-OMe C10) [SEQ ID NO:17-12 (23F42)]: binds.
B8: binds.
B9: binds.
GGAGGUGCUCCGAAAGGAACUCCAAAAAAAAAAAAAAAA (mixed, as 17-8 with 2'-OMe U9) [SEQ ID NO:17-11 (23F41)]: binds.
B10: binds.
B11: binds.
B12: binds.
GGAGGUGCUCCGAAAGGAACUCCAAAAAAAAAAAAAAAA (mixed, as 17-7 with 2'-OMe U9) [SEQ ID NO:17-14 (23F31)]: binds.
GGAGGUGCUCCGAAAGGAACTCCAAAAAAAAAAAAAAAA (mixed, 2'-F U6 C8 U9 C20; deoxy C10 C11 T21 C22 C23 and A16 tail; rest 2'-OH) [SEQ ID NO:17-1 (23F1)]: binds.
GGAGGUGCUCCGAAAGGAACUCCAAAAAAAAAAAAAAAA (mixed, as 17-7 with 2'-OMe G17) [SEQ ID NO:17-10 (23F33)]: binds.

What follows are binders tested against T1, IgG1 (assay: SPR; solution A). Details: tags: Calbiochem; chain copies: 2; label: 3' A16 tail for SPR; 5' biotin for serum pull-down.
Description: as §1
The dissociation constant was determined by immobilizing an RNA having 16-residue PolyA added to the 3′ end thereof onto a sensor chip via an A-dT bond, injecting different concentrations of IgG (0.6 μM to 0.05 μM), and performing surface plasmon resonance.
Measurements were performed in the same manner as Example 1 by immobilizing an RNA having 16-residue Poly A added thereto via an A-pT bond, and injecting IgG thereto.
In the case of GGAGGUGCUCUGCGAGCCACGCGGAACUCC (ssRNA, 2'-F at all pyrimidines) [SEQ ID NO:15], the Kd is reported as 5 nM.

Same assay, conditions: tags: Calbiochem; chain copies: 2; label: 3' A16 tail for immobilisation
Binder GGACAGGUGCUCCGAAAGGAACUGUCC (ssRNA, 2'-F at all pyrimidines) [SEQ ID NO:16] has a Kd of 6 nM.
B13 gave a Kd of 1 nM.
Binder B14 has a Kd of 6 nM.
GGACAGGUGCUCUGCGGAAACGCGGAACUGUCC (ssRNA, 2'-F at all pyrimidines) [SEQ ID NO:14] was tested, and the Kd was 4 nM.

Same assay, conditions: tags: Calbiochem; chain copies: 2; label: 3' A16 tail for immobilisation; GGUGCU bulge
Work on B15 yielded a Kd of 3 nM.
Binder B16 has a Kd of 20 nM.
B17 was tested, and the Kd was 1 nM.
B18 gave a Kd of 0.001 nM.
B19 showed a Kd of 10 nM.
Binder B20 has a Kd of 5 nM.
In the case of B21, the Kd is reported as 30 nM.

Same assay, conditions: tags: Calbiochem; chain copies: 2; label: 3' A16 tail for immobilisation; GGUGCU bulge (vsfold4)
B22 showed a Kd of 20 nM.

Source: patent US20090170219, “Nucleic acid capable of binding to immunoglobulin G and use thereof” (published 2009)
